The target in test [1] is CGRP receptor (Homo sapiens (Human)) (UniProt Q16602). Nature of the test: 125I-hCGRP displacement, SK-N-MC membranes.
For test [2], the target named is neuropeptide Y2 receptor (UniProt P49146). The test is described as follows: [125I]-human PYY displacement, SK-N-BE membranes.
Test [3] has as its target calcitonin receptor. The test is described as follows: cell-based or functional assay.
Test [4] deals with calcitonin receptor. Nature of the test: calcitonin receptor binding assay.

This passage reports Receptor Binding and CT cyclase results from patent EP2330125A2.

neuropeptide Y2 receptor, sequence (P49146 whole entry): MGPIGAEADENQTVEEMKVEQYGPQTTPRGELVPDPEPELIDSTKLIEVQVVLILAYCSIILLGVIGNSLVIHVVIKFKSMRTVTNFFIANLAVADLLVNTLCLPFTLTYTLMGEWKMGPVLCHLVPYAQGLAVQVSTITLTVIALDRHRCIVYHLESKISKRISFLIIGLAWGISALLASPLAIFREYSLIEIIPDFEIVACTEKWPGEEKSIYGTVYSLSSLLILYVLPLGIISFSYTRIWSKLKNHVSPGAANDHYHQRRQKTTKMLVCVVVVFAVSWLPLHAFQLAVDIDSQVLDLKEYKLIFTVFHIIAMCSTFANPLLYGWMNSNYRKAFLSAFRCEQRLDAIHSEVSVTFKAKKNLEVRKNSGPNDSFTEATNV
calcitonin receptor, sequence (P30988 whole entry): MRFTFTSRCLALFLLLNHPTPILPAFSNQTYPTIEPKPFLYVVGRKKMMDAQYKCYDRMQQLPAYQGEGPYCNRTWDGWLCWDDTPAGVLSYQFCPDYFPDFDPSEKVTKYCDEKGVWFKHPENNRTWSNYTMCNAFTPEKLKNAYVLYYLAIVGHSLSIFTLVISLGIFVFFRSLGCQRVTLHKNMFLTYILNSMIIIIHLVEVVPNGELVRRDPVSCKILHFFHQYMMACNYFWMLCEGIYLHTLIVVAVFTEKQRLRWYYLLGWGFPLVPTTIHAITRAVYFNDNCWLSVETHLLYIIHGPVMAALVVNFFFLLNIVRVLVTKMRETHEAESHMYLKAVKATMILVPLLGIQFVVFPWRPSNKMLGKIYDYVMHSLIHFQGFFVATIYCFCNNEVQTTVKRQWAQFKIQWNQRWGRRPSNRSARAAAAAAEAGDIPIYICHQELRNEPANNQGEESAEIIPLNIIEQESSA

“27(p-CH2SO3)-PheCCK8(26-33),G,K,R,15Glu,hAmy(1-17),18Arg,sCT(18-26),hAmy(32-37) (peptide)”: the Receptor Binding in test [1] is 4.4. As for Human NPY (peptide), the Receptor Binding in test [2] is 0.2. Substance Rat amylin (peptide) came in with a Receptor Binding in test [1] of 21.

As for “[#Cys-Gly-Gly-PYY (3-36), amide] [Asp(#)-Pro-Pro-Pro-Pro-Pro-Pro-PYY (3-36), amide] (peptide)”, the Receptor Binding in test [2] was 0.8.

In turn, “[#Cys-Gly-Gly-PYY (3-36), amide] [Asp(#)-miniPEG3-Gly-PYY (3-36), amide] (peptide)” gave a Receptor Binding in test [2] of 0.8. Same read-out and setting: in the case of “[#Des-Lys1 Compound 10, amide] (Asp(#)-Pro-Pro-Pro-Pro-Pro-Pro-PYY (3-36), amide (peptide)” it was 0.5; in that of “[#NH-Cys-(bAla)-PYY-(3-36), amide] [#Suc-(bAla)-PYY-(3-36), amide] (peptide)”, 1.2. In the case of “[#NH-Cys-(bAla)-PYY-(3-36), amide] [#Suc-(bAla)-PYY-(3-36), amide] (peptide; modification not given)”, the CT cyclase in test [3] amounted to 2270. Besides, in test [4], the Receptor Binding was found to be 643. As to “[#Suc-(bAla)-PYY-(3-36), amide] [#NH-Des-Lys1-Rat Amylin, amide] (peptide)”, in test [2], the Receptor Binding was 0.39. In test [2], “[Ac-alpha-MSH-bAla-bAla-PYY-(3-36); amide] (peptide)” yielded a Receptor Binding of 0.2. Same read-out and setting: as for “[Asp(#)-miniPEG-Gly-PYY (3-36), amide] [#Cys-Gly-Gly-PYY (3-36), amide] (peptide)”, the figure is 0.8.
